Measured values: publication PMC5928126 (Nature Communications, 2018)

Molecular target: the molecule itself
Experiment: cryo-EM structure

B1: measles virus fusion glycoprotein (F) (natural protein)
chain: QIHWGNLSKIGVVGIGSASYKVMTRSSHQSLVIKLMPNITLLNNCTRVEIAEYRRLLRTVLEPIRDALNAMTQNIRPVQSVASSRRHKRFAGVVLAGAALGVATAAQITAGIALHQSMLNSQAIDNLRASLETTNQAIEAIRQAGQEMILAVQGVQDYINNELIPSMNQLSCDLIGQKLGLKLLRYYTEILSLFGPSLRDPISAEISIQALSYALGGDINKVLEKLGYSGGDLLGILESRGIKARITHVDTESYFIVLSIAYPTLSEIKGVIVHRLEGVSYNIGSQEWYTTVPKYVATQGYLISNFDESSCTFMPEGTVCSQNALYPMSPLLQECLRGSTKSCARTLVSGSFGNRFILSQGNLIANCASILCKCYTTGTIINQDPDKILTYIAADHCPVVEVNGVTIQVGSRRYPDAVYLHRIDLGPPISLERLDVGTNLGNAIAKLEDAKELLESSDQILRSMKGLSSTSIVYILIAVCLGGLIGIPALICCCRGRCNKKGEQVGMSRPGLKPDLTGTSKSYVRSL
notes: also called MeV F; pre-fusion F
stoichiometry N: 3
